Source: patent publication US20140112930A1 (published 2014)

T1: Monomeric hAng-2FD (human, UniProt O15123 282-496)
T1 construct: also called fibrinogen-like domain of human Ang2; Human Ang-2FD
T1 sequence: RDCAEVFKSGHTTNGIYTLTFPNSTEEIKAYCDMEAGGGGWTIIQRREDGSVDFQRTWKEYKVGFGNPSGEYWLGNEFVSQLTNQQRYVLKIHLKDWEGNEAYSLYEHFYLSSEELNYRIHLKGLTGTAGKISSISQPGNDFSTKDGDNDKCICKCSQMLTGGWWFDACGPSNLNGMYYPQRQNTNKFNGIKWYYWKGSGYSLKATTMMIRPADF

T2: wild-type human Ang-2 (hAng-2-WT) (human, UniProt O15123 19-496)
T2 construct: called full-length wild-type; also called Full-length wild-type human Ang-2
T2 sequence: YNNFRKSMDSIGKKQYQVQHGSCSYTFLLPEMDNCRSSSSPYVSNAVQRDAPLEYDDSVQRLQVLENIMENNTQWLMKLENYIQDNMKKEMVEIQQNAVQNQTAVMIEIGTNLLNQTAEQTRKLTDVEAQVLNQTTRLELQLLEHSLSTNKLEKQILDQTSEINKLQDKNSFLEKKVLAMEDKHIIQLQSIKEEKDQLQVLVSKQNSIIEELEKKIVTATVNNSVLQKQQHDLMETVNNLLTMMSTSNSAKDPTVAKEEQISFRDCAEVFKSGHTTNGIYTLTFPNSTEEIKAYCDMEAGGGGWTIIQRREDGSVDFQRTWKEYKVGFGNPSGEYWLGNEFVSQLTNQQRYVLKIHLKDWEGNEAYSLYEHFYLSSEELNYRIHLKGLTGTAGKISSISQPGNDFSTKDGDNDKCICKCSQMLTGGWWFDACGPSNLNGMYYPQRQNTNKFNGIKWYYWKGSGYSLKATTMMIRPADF

B1: H1M724N (antibody, V domains shown)
VH: QVQLVESGGGVVQPGRSLRLSCAASGFTLSNYGMHWVRQAPGKGLEWVAVIWHDGSNTYYADSVKGRFTISRDNSKNTLYLQMNSLRAEDTAVYYCTREGLDFWSGYYPNWFDPWGQGTLVTVSS
VL: DIQMTQSPSSLSASVGDRVTITCRASQGIRNDLGWYQQKPGKAPKRLIYAASNLQGGVPSRFSGSGSGTEFTLTISSLQPEDFAAYYCLQHNIYPLTFGGGTKVEIK
B2: H2M730N (antibody, V domains shown)
VH: EVQLVESGGGLVQPGGSLRLSCAASGFAFRSYWMTWVRQAPGKGLEWVANIQQDGNDKYYVDSVKGRFTISRDNAKNSLYLQMNSLRAEDTAVYYCARDTGIAEAGPFDYWGQGTLVTVSS
VL: DIQMTQSPSTLSASVGDRVSITCRASQTIISWLAWYQQKPGKAPRLLIYKASSLESGVPSRFSGSGSGTEFTLTINSLQPDDFATYYCQQYNRYWTFGQGTKVEIK
B3: H1H750N (antibody, V domains shown)
VH: QVKLVESGGGVVQPGRSLRVSCAASGFTFSSYGMHWVRQAPGKGLEWLAIIWYDGDNKYYSDSVKGRFTISRDNSKNTLYLQMNSLRAEDTAEYYCVRDASIASRFLDYWGQGTLVTVSS
VL: DIQMTQSPSSLSASIGDRVTITCRATQDINNYLAWFQQKPGKAPKSLIYATSNLQSGVPSKFSGSGSGTDYTLTISSLQPEDFSTYYCQQYHSYPLTFGGGTKVEIK
B4: H1H690P (antibody, V domains shown)
VH: EVQLVESGGGLVQPGESLRLSCAASGFTFSSYAMSWVRQGPGKGLEWVSSITGSGDTTYYADSVKGRFTISRDNSKNTLYLHMNSLRAEDTAVYYCAKDFLDYSTYLAFDLWGQGTMVTVSS
VL: EIVLTQSPATLSLSPGERATLSCRASQSVSSYLTWYQQKPGQAPRLLSYDASNRATGIPARFSGSGSGTDFTLTISSLEPEDFAVYYCQQRSNWPLTFGGGTKVEIK
B5: H1H693P (antibody, V domains shown)
VH: EVQLVESGGGLVQPGESLRLSCAASGFTFSSYAMSWVRQGPGKGLEWVSSISGSGGTTYYADSVEGRFTISRDNSKNTLYLHMNSLRAEDTAVYYCAKDFLDYSTYLAFDLWGQGTMVTVSS
VL: DIQMTQSPSSVSASVGDRVTITCRASQGISSWLAWYQQKPGKAPKLLIYAASSLQSGVPSRFSGSGSGTDFTLTISSLQPEDFATYYCQQANSFPRTFGQGTKVEIK
B6: H1H695P (antibody, V domains shown)
VH: QVQLVESGGGVVQPGRSLRLSCAASGFTFSSYGMHWVRQAPGKGLEWVAVMWYDETNKYYADSVKGRFTISRDNSKNTLYLQMNSLRAEDTAVYYCARYSGYEDYYHGMDVWGQGTTVTVS
VL: EIVMTQSPATPSVSPGERATLSCRASQSISSNLAWYQQKPGQAPRLLIYGASTRATGIPARFSGSGSGTEFTLTISSLQSEDFAVYYCQHYNNWITFGQGTRLEIK
B7: H1H696P (antibody, V domains shown)
VH: QVQLVESGGGLVKPGGSLRLSCAASGFTFSDYYMSWIRQAPGKGLEWVSYISYTGRTIYYADSVKGRFTISRDNAKNSLYLQMNSLRAEDTAVYYCARDTDYGDFFDYWGQGTLVTVSS
VL: DIQMTQSPSSLSASVGDRVTITCRASQGISNYLAWFQQKPGKAPKSLIYAASSLQSGVPSKFSGSGSGTDFTLTISSLQPEDFATYYCQQYNSYPLTFGGGTKVEIK
B8: H2M750N (antibody, V domains shown)
VH: QVKLVESGGGVVQPGRSLRVSCAASGFTFSSYGMHWVRQAPGKGLEWLAIIWYDGDNKYYSDSVKGRFTISRDNSKNTLYLQMNSLRAEDTAEYYCVRDASIASRFLDYWGQGTLVTVSS
VL: DIQMTQSPSSLSASIGDRVTITCRATQDINNYLAWFQQKPGKAPKSLIYATSNLQSGVPSKFSGSGSGTDYTLTISSLQPEDFSTYYCQQYHSYPLTFGGGTKVEIK
B9: H1H685P (antibody, human IgG1, V domains shown)
VH: EVQLVESGGGLVQPGGSLRLSCAASGFTFSSYDIHWVRQATGKGLEWVSAIGPAGDTYYPGSVKGRFTISRENAKNSLYLQMNSLRAGDTAVYYCARGLITFGGLIAPFDYWGQGTLVTVSS
VL: EIVLTQSPGTLSLSPGERATLSCRASQSVSSTYLAWYQQKPGQAPRLLIYGASSRATGIPDRFSGSGSGTDFTLTISRLEPEDFAVYYCQHYDNSQTFGQGTKVEIK
notes: Fully human antibody, human IgG1

Experiments:
Monomeric hAng-2FD = target: T1, Monomeric hAng-2FD; assay: SPR, captured Ab
[1] = target: T2, wild-type human Ang-2 (hAng-2-WT); assay: SPR, captured Ab
[2] = target: T3, Dimeric Human Ang-2FD conjugated to human IgG1 (human); assay: SPR, captured Ab, RT
T3 construct: also called Human Ang-2FD-hFc; hAng-2FD-hFc
Method: (§1) Antibody was captured on a goat anti-mouse IgG polyclonal antibody surface, a goat anti-human κ polyclonal antibody (Southern Biotech, Birmingham, Ala.) surface or a goat anti-human IgG polyclonal antibody (Jackson Immuno Research Lab, West Grove, Pa.) surface created through direct amine coupling to a BIACORE™ CM5 sensor chip to form a captured antibody surface. […] Antigen-antibody binding and dissociation were monitored in real time at room temperature. Kinetic analysis was performed to calculate KD and half-life of antigen/antibody complex dissociation.

[3] = target: T4, Dimeric Mouse Ang-2FD conjugated to human IgG1 (mouse (Mus musculus); human); assay: SPR, captured Ab, RT
T4 construct: also called Mouse Ang-2FD-hFc
Method: as §1

[4] = target: T5, Dimeric Monkey Ang-2FD conjugated to human IgG1 (monkey (Macca fascicularis); human); assay: SPR, captured Ab, RT
T5 construct: also called Monkey Ang-2FD-hFc
Method: as §1

[5] = target: T3, Dimeric Human Ang-2FD conjugated to …; assay: competition ELISA, 16.67 nM Ab, coated hTie-2-mFc
Method: (§2) The plate was then blocked with PBS (Irvine Scientific, Santa Ana, Calif.) containing 0.5% BSA (Sigma-Aldrich Corp., St. Louis, Mo.) for one hour at room temperature. […] Human, mouse or monkey Ang-2FD protein conjugated to human IgG (Ang-2FD-hFc) were added to final concentrations of 2 nM, 8 nM, or 2 nM respectively and incubated for one hour at room temperature. The antibody/Ang-2FD-Fc mixture was then added to the plate containing hTie-2-mFc and incubated for one hour at room temperature. Detection of Ang-2FD-hFc bound to hTie-2-mFc protein was determined with Horse-Radish Peroxidase (HRP) conjugated to a-human IgG antibody (Jackson Immuno Research Lab, West Grove, Pa.) and developed by standard colorimetric response using tetramethylbenzidine (TMB) substrate (BD Biosciences, San Jose, Calif.). Absorbance was read at OD₄₅₀ for 0.1 sec.

[6] = target: T4, Dimeric Mouse Ang-2FD conjugated to …; assay: competition ELISA, 16.67 nM Ab, coated hTie-2-mFc
Method: as §2

[7] = target: T5, Dimeric Monkey Ang-2FD conjugated to …; assay: competition ELISA, 16.67 nM Ab, coated hTie-2-mFc
Method: as §2

[8] = target: T6, human bow-Ang-2 tetrameric construct (hBA2) (human); assay: SPR, captured Ab
T6 construct: also called human BA2; hBA2-hIgG1

Mouse Ang-2FD-hFc = target: T7, Mouse Ang-2FD-hFc (mouse (Mus musculus)); assay: blocking ELISA, 16.67 nM antibody, Ang-2FD-hFc to coated hTie-2-mFc
T7 construct: also called dimeric mouse Ang-2FD
Method: as §2

Binder | Kd (Monomeric hAng-2FD) | T1/2 (Monomeric hAng-2FD) | Kd [1] | T1/2 [1] | Kd [2] | T1/2 [2] | Kd [3] | T1/2 [3] | Kd [4] | T1/2 [4] | Percent Blocking of Ang-2FD Binding to Tie-2 [5] | Percent Blocking of Ang-2FD Binding to Tie-2 [6] | Percent Blocking of Ang-2FD Binding to Tie-2 [7] | Kd [8] | T1/2 [8] | Percent Blocking of Ang-2FD Binding to Tie-2 (Mouse Ang-2FD-hFc)
B1 | 1750 pM | 17.4 min | 33.1 pM | 9.47 h | 179 pM | 42.7 min | 694 pM | 16 min | 730 pM | 25.7 min | 99.5% | 96.6% | 95.2% |  |  | 
B2 | 2060 pM | 24.4 min | 49.2 pM | 8.65 h | 210 pM | 47 min |  |  | 842 pM | 36.6 min | 98.9% | 55% | 97.3% |  |  | 
B3 | 787 pM | 30.2 min | 9.5 pM | 74 h | 164 pM | 127 min | 218 pM | 121 min | 199 pM | 244 min |  |  |  | 36.9 pM | 284 min | 
B4 | 594 pM | 25.2 min | 12.4 pM | 26.1 h | 79 pM | 126 min | 91.3 pM | 105 min | 55.6 pM | 195 min |  |  |  | 17.9 pM | 299 min | 
B5 | 44800 pM | 0.61 min | 425 pM | 1.67 h | 500 pM | 37.1 min | 446 pM | 63.7 min | 1170 pM | 17.6 min |  |  |  | 299 pM | 28.7 min | 
B6 | 1120 pM |  | 31.1 pM | 29.5 h | 245 pM | 147 min | 347 pM | 124 min | 440 pM | 84.1 min |  |  |  | 40.1 pM | 254 min | 
B7 | 38400 pM | 0.2 min | 40.3 pM | 10.7 h | 289 pM | 38.8 min | 402 pM | 37.6 min | 354 pM | 36.6 min |  |  |  | 111 pM | 51.5 min | 
B8 | 4420 pM | 21.5 min | 40.8 pM | 16.5 h | 362 pM | 32.2 min |  |  | 1470 pM | 23 min | 99.4% | 53.7% | 97.4% |  |  | 
B9 |  |  |  |  |  |  |  |  |  |  |  |  |  |  |  | 97.1%
